Experimental findings from US20210047426A1 (MacroGenics, published 2021) are described below.

In test [1] the target is T1, Human CD123 on the surface of leukemic cell lines (human, UniProt P26951 19-378).
T1 construct: whole, on cells; also called CD123 on Molm-13, Kasumi-3, THP-1, TF-1 and RS4-11 cells
As to the kind of experiment: FACS on Molm-13 cells, detection with a monoclonal antibody to the E-coil/K-coil region.

The target in test [2] is T2, Human CD123-His (soluble human IL3R-alpha) (human, UniProt P26951 19-305, limits assumed).
T2 construct: also called interleukin 3 receptor alpha chain; not shown: His tag
T2 sequence (looked up): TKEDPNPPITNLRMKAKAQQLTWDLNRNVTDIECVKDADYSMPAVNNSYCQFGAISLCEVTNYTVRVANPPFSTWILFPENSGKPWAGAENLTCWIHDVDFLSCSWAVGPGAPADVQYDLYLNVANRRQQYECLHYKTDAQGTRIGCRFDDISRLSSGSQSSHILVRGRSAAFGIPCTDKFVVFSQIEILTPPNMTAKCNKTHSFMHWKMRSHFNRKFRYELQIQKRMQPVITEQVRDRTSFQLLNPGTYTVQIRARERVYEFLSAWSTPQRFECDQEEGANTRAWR
Kind of test: bifunctional ELISA, plate coated with human CD123, detection with human CD3-biotin and streptavidin-HRP. The procedure: (§1) A MaxiSorp ELISA plate (Nunc) coated overnight with the soluble human or cynomolgus IL3R-alpha (0.5 μg/mL) in bicarbonate buffer was blocked with 0.5% BSA; 0.1% Tween-20 in PBS (PBST/BSA) for 30 minutes at room temperature. […] HRP activity was detected by conversion of tetramethylbenzidine (BioFX) as substrate for 5 min; the reaction was terminated with […] of 1% […] and the absorbance read at 450 nm.
(In general: ELISA stands for enzyme-linked immunosorbent assay.)

Test [3] addresses T1, Human CD123 on the surface of leukemic …. As to the kind of experiment: cell-based or functional assay.
In test [4] the target is T2, Human CD123-His (soluble human …). As to the kind of experiment: BIACORE surface plasmon resonance, purified human CD123 captured and immobilized, 1:1 binding fit. An excerpt: (§2) BIACORE™ analyses measure the dissociation off-rate, kd. The binding affinity (KD) between an antibody and its target is a function of the kinetic constants for association (on rate, ka) and dissociation (off-rate, kd) according to the formula: KD=[kd]/[ka]. The BIACORE™ analysis uses surface plasmon resonance to directly measure these kinetic parameters. Recombinant human or cynomolgus monkey CD3 was directly immobilized to a support. Purified human or cynomolgus monkey CD123 was captured and immolbilized to a support. The time course of dissociation was measured and a […] of the data conducted. Binding constants and affinity were obtained using a 1:1 binding fit.

The target is the same in test [5]. As to the kind of experiment: SPR (BIAcore 3000), antigen immobilized on the chip, DART-A injected, 1:1 Langmuir fit, mean of 3 experiments. On the procedure: (§3) Briefly, the carboxyl groups on the CMS sensor chip were activated with an injection of 0.2M N-ethyl-N-([…]) carbodiimide and 0.05M N-hydroxy-succinimide. Soluble CD3 or CD123 (1 μg/ml) was injected over the activated CMS surface in 10 mM sodium-acetate, pH 5.0, at flow rate 5 μL/min, followed by 1 M ethanolamine for deactivation. Binding experiments were performed in 10 mM HEPES, pH 7.4, 150 mM NaCl, 3 mM EDTA and 0.005% P20 surfactant. Regeneration of the immobilized receptor surfaces was performed by pulse injection of 10 mM glycine, pH 1.5. KD values were determined by a global fit of binding curves to the Langmuir 1:1 binding model (BIAevaluation software v4.1).
(§4) The data in Table 7 are averages of 3 independent experiments each performed in duplicates.

In test [6] the target is T3, Cynomolgus CD123-His (soluble cynomolgus IL3R-alpha) (cynomolgus monkey).
T3 construct: also called cynomolgus monkey CD123; monkey CD123
The test is described as above. The procedure: as §3, §4

Test [7] addresses T3, Cynomolgus CD123-His (soluble …). Kind of test: BIACORE surface plasmon resonance, purified cynomolgus monkey CD123 captured and immobilized, 1:1 binding fit.
Description: as §2
A general note: SPR reads the build-up and loss of mass on a sensor chip optically.

Test [8] has the same target. Kind of test: bifunctional ELISA, plate coated with cynomolgus monkey CD123, detection with human CD3-biotin and streptavidin-HRP. The procedure:
as §1

B1: Control Bi-Specific Diabody (Control DART) (bispecific antibody)
chain 1: DVVMTQTPFSLPVSLGDQASISCRSSQSLVHSNGNTYLRWYLQKPGQSPKVLIYKVSNRFSGVPDRFSGSGSGTDFTLKISRVEAEDLGVYFCSQSTHVPWTFGGGTKLEIKGGGSGGGGEVQLVESGGGLVQPGGSLRLSCAASGFTFNTYAMNWVRQAPGKGLEWVARIRSKYNNYATYYADSVKDRFTISRDDSKNSLYLQMNSLKTEDTAVYYCVRHGNFGNSYVSWFAYWGQGTLVTVSSGGCGGGEVAALEKEVAALEKEVAALEKEVAALEK
chain 2: QAVVTQEPSLTVSPGGTVTLTCRSSTGAVTTSNYANWVQQKPGQAPRGLIGGTNKRAPWTPARFSGSLLGGKAALTITGAQAEDEADYYCALWYSNLWVFGGGTKLTVLGGGGSGGGGEVKLDETGGGLVQPGRPMKLSCVASGFTFSDYWMNWVRQSPEKGLEWVAQIRNKPYNYETYYSDSVKGRFTISRDDSKSSVYLQMNNLRVEDMGIYYCTGSYYGMDYWGQGTSVTVSSGGCGGGKVAALKEKVAALKEKVAALKEKVAALKE
notes: Bi-specific for fluorescein (FITC) and CD3; has no CD123 arm; also called FITC × CD3 control diabody
For the molecule B1, the binding result is recorded as “no binding” in test [1] and “no binding (tested: 1 ug/mL)” in test [2].

B2: Sequence-Optimized CD123 × CD3 Bi-Specific Diabody Having an Albumin-Binding Domain (DART-A w/ABD) (bispecific antibody)
chain 1: QAVVTQEPSLTVSPGGTVTLTCRSSTGAVTTSNYANWVQQKPGQAPRGLIGGTNKRAPWTPARFSGSLLGGKAALTITGAQAEDEADYYCALWYSNLWVFGGGTKLTVLGGGGSGGGGEVQLVQSGAELKKPGASVKVSCKASGYTFTDYYMKWVRQAPGQGLEWIGDIIPSNGATFYNQKFKGRVTITVDKSTSTAYMELSSLRSEDTAVYYCARSHLLRASWFAYWGQGTLVTVSSGGCGGGEVAALEKEVAALEKEVAALEKEVAALEKGGGSLAEAKVLANRELDKYGVSDYYKNLIDNAKSAEGVKALIDEILAALP
chain 2: DFVMTQSPDSLAVSLGERVTMSCKSSQSLLNSGNQKNYLTWYQQKPGQPPKLLIYWASTRESGVPDRFSGSGSGTDFTLTISSLQAEDVAVYYCQNDYSYPYTFGQGTKLEIKGGGSGGGGEVQLVESGGGLVQPGGSLRLSCAASGFTFSTYAMNWVRQAPGKGLEWVGRIRSKYNNYATYYADSVKDRFTISRDDSKNSLYLQMNSLKTEDTAVYYCVRHGNFGNSYVSWFAYWGQGTLVTVSSGGCGGGKVAALKEKVAALKEKVAALKEKVAALKE
Regarding B2, in test [3], the “EC50 of redirected killing of Kasumi-3 cells (LDH release, E:T = 10:1)” value is 0.01 ng/mL; the “EC50 of redirected killing of Molm13 cells (LDH release, E:T = 10:1)” value came to 0.18 ng/mL; the “EC50 of redirected killing of RS4-11 cells (LDH release, E:T = 10:1)” value is 0.5 ng/mL; the “EC50 of redirected killing of TF-1 cells (LDH release, E:T = 10:1)” value turned out to be 0.46 ng/mL. In addition, in test [3], the “EC50 of redirected killing of THP-1 cells (LDH release, E:T = 10:1)” value was determined as 0.24 ng/mL.

B3: Sequence-Optimized CD123 × CD3 Bi-Specific Diabody (DART-A) (bispecific antibody)
chain 1: QAVVTQEPSLTVSPGGTVTLTCRSSTGAVTTSNYANWVQQKPGQAPRGLIGGTNKRAPWTPARFSGSLLGGKAALTITGAQAEDEADYYCALWYSNLWVFGGGTKLTVLGGGGSGGGGEVQLVQSGAELKKPGASVKVSCKASGYTFTDYYMKWVRQAPGQGLEWIGDIIPSNGATFYNQKFKGRVTITVDKSTSTAYMELSSLRSEDTAVYYCARSHLLRASWFAYWGQGTLVTVSSGGCGGGEVAALEKEVAALEKEVAALEKEVAALEK
chain 2: DFVMTQSPDSLAVSLGERVTMSCKSSQSLLNSGNQKNYLTWYQQKPGQPPKLLIYWASTRESGVPDRFSGSGSGTDFTLTISSLQAEDVAVYYCQNDYSYPYTFGQGTKLEIKGGGSGGGGEVQLVESGGGLVQPGGSLRLSCAASGFTFSTYAMNWVRQAPGKGLEWVGRIRSKYNNYATYYADSVKDRFTISRDDSKNSLYLQMNSLKTEDTAVYYCVRHGNFGNSYVSWFAYWGQGTLVTVSSGGCGGGKVAALKEKVAALKEKVAALKEKVAALKE
notes: Two-chain heterodimer, the chains disulfide-bonded to one another; one CD123 site and one CD3 site; 58.9 kDa
As to B3, the dissociation constant Kd worked out at 0.14 nM in test [4], 0.13 nM in test [5], 0.27 nM in test [6] and 0.27 nM in test [7]. The koff in test [5] came out at 0.00019 s⁻¹; in test [6], 0.0004 s⁻¹. Besides, the kon in test [5] was 1.6e+06 M⁻¹ s⁻¹; in test [6] it was 1.5e+06 M⁻¹ s⁻¹. The “EC50 (read off the curve)” value is about 10 ng/mL in test [2] and about 40 ng/mL in test [8].

In general, Kd refers to the equilibrium constant for the complex coming apart. Usually koff stands for a measure of how fast the partners let go of each other. Usually kon stands for the rate constant with which the complex forms. Broadly, the EC50 (read off the curve) is the midpoint of the concentration-response curve.
